From the supplement of paper PMC7877785
± gives the uncertainty stated by the source.

Assay: self-splicing fitness, log relative to wild type (ln ratio); higher = more splicing; Tetrahymena group I intron in knt gene, E. coli kanamycin selection, DiMSum; sequences stand for … in CUCUCU…GGAGGGAAAAGUUAUCAGGCAUGCACCUGGUAGCUAGUCUUUAAACCAAUAGAUUGCAUCGGUUUAAAAGGCAAGACCGUCAAAUUGCGGGAAAGGGGUCAACAGCCGUUCAGUACCAAGUCUCAGGGGAAACUUUGAGAUGGCCUUGCAAAGGGUAUGGUAAUAAGCUGACGGACAUGGUCCUAACCACGCAGCCAAGUCCUAAGUCAACAGAUCUUCUGUUGAUAUGGAUGCAGUUCACAGACUAAAUGUCGGUCGGGGAAGAUGUAUUCUUCUCAUAAGAUAUAGUCGGACCUCUCCUUAAUGGGAGCUAGCGGAUGAAGUGAUGCAACACUGGAGCCGCUGGGAACUAAUUUGUAUGCGAAAGUAUAUUGAUUAGUUUUGGAGUACUCGUGGUCG
In short: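 The eight P1ex-region nucleotides of an intron in the knt kanamycin-resistance gene on pET-22b(+) were all randomised and the library put into E. coli BL21(DE3). Six replicate transformations were grown overnight at 37°C or 30°C on LB agar with or without 25 μg/mL kanamycin, together with 100 μg/mL carbenicillin, 50 μM IPTG and 0.2% rhamnose. Colonies were pooled and amplicon-sequenced on an Illumina HiSeq 2500. Fitness from DiMSum is the error-weighted combination of wild-type-normalised replicate fold changes, kanamycin over none.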

Row | Sequence | self-splicing fitness (ln) (30 °C) | self-splicing fitness (ln) (37 °C)
1 | GUCCAGCAAUAUUACGUGAC | -1.23 ± 0.13 | -1.93 ± 0.16
2 | GUCCAGCAAUAUUACGUGAG | 0.151 ± 0.044 | 0.375 ± 0.065
3 | GUCCAGCAAUAUUACGUGGG | -3.68 ± 0.13 | -2.36 ± 0.14
4 | GUCCAGCAAUAUUACGUUAA | -1.64 ± 0.1 | -0.751 ± 0.079
5 | GUCCAGCAAUAUUACGUUAC | -1.55 ± 0.089 | -0.179 ± 0.1
6 | GUCCAGCAAUAUUACGUUGC | -2.05 ± 0.13 | -0.538 ± 0.16
7 | GUCCAGCAAUAUUACGUUUG | -2.85 ± 0.11 | -0.981 ± 0.1
8 | GUCGAGCAAUAUUACGAAAC | -2.72 ± 0.41 | -0.657 ± 0.37
9 | GUCGAGCAAUAUUACGAACA | -1.67 ± 0.37 | -0.344 ± 0.29
10 | GUCGAGCAAUAUUACGAAUC | -1.52 ± 0.11 | -0.929 ± 0.15
11 | GUCGAGCAAUAUUACGACUU | -1.88 ± 0.27 | -1.3 ± 0.32
12 | GUCGAGCAAUAUUACGCAAA | -2.51 ± 0.39 | –
13 | GUCGAGCAAUAUUACGCAAU | -1.08 ± 0.1 | -0.467 ± 0.14
14 | GUCGAGCAAUAUUACGCCAA | -2.68 ± 0.35 | -2.6 ± 0.48
15 | GUCGAGCAAUAUUACGCGGC | -3.88 ± 0.47 | -2.25 ± 0.39
16 | GUCGAGCAAUAUUACGCGGG | -2.85 ± 0.15 | -1.94 ± 0.19
17 | GUCGAGCAAUAUUACGGAAA | -2.83 ± 0.23 | -2.11 ± 0.22
18 | GUCGAGCAAUAUUACGGAAC | -3.01 ± 0.19 | -1.9 ± 0.2
19 | GUCGAGCAAUAUUACGGACU | -3.29 ± 0.47 | -1.73 ± 0.24
20 | GUCGAGCAAUAUUACGGCUA | -1.78 ± 0.21 | -1.47 ± 0.18
21 | GUCGAGCAAUAUUACGGGUG | -4.13 ± 0.25 | -2.11 ± 0.19
22 | GUCGAGCAAUAUUACGGGUU | -3.03 ± 0.2 | -1.04 ± 0.16
23 | GUCGAGCAAUAUUACGGUUG | -2.68 ± 0.2 | -2.15 ± 0.26
24 | GUCGAGCAAUAUUACGUAAG | -2.59 ± 0.14 | -1.34 ± 0.18
25 | GUCGAGCAAUAUUACGUCCC | -1.03 ± 0.19 | -0.687 ± 0.33

Row | Sequence | self-splicing fitness (ln) (30 °C) | self-splicing fitness (ln) (37 °C)
26 | GUCGAGCAAUAUUACGUGAC | -4.99 ± 0.45 | -2.57 ± 0.35
27 | GUCUAGCAAUAUUACGAAAC | -0.862 ± 0.13 | -0.29 ± 0.14
28 | GUCUAGCAAUAUUACGAAGG | -2.34 ± 0.18 | -1.43 ± 0.16
29 | GUCUAGCAAUAUUACGACUU | -1.32 ± 0.12 | -0.56 ± 0.11
30 | GUCUAGCAAUAUUACGAGGU | – | -1.99 ± 0.4
31 | GUCUAGCAAUAUUACGAUGA | -1.21 ± 0.28 | -0.329 ± 0.13
32 | GUCUAGCAAUAUUACGCAUC | -0.727 ± 0.13 | 0.171 ± 0.14
33 | GUCUAGCAAUAUUACGCCAA | – | -0.981 ± 0.29
34 | GUCUAGCAAUAUUACGCUCA | 0.346 ± 0.16 | 0.103 ± 0.19
35 | GUCUAGCAAUAUUACGCUGA | -1.21 ± 0.16 | -0.707 ± 0.13
36 | GUCUAGCAAUAUUACGCUGC | – | -2.71 ± 0.34
37 | GUCUAGCAAUAUUACGGACA | -1.63 ± 0.18 | -0.275 ± 0.14
38 | GUCUAGCAAUAUUACGGCAC | -0.276 ± 0.14 | 0.385 ± 0.13
39 | GUCUAGCAAUAUUACGGGAA | -1.24 ± 0.086 | -0.758 ± 0.084
40 | GUCUAGCAAUAUUACGUCAU | -0.258 ± 0.12 | -0.425 ± 0.081
41 | GUCUAGCAAUAUUACGUCUU | -0.274 ± 0.09 | 1.25 ± 0.099
42 | GUCUAGCAAUAUUACGUGGA | -2.12 ± 0.23 | -2.69 ± 0.24
43 | GUCUAGCAAUAUUACGUGGC | -2.84 ± 0.44 | -3.01 ± 0.43
44 | GUCUAGCAAUAUUACGUGUC | -0.8 ± 0.089 | -0.0601 ± 0.086
45 | GUGAAGCAAUAUUACGAAAG | -1.41 ± 0.15 | -0.599 ± 0.15
46 | GUGAAGCAAUAUUACGAACG | -1.57 ± 0.4 | –
47 | GUGAAGCAAUAUUACGAAGC | -2.06 ± 0.08 | -1.06 ± 0.11
48 | GUGAAGCAAUAUUACGACAG | -2.07 ± 0.16 | -1.25 ± 0.17
49 | GUGAAGCAAUAUUACGACGC | 0.482 ± 0.12 | 0.847 ± 0.17
